Data on 1 substance can be found in PMC6182392.

For this test, the target named is Filgrastim (recombinant human granulocyte-colony stimulating factor from Escherichia coli) (human) (UniProt P09919). In words: SEC; HP-SEC, TSKgel G3000SWXL, 50 mM ammonium hydrogen carbonate pH 7.0, column 30°C; expired PDgrastim diluted to 0.25 mg/ml in 100 mM sodium acetate pH 5.0; dimer and oligomer assigned by retention relative to the monomer (Ph. Eur.). In general terms: Size exclusion chromatography separates by hydrodynamic size, large species first.

Take “Filgrastim (recombinant human granulocyte-colony stimulating factor from Escherichia coli) (from UniProt P09919-2 31-204) (ligand)”: the relative peak area of dimer was 3.6%, the relative peak area of oligomer amounted to 0.1% and the stoichiometry N stood at 2.

Broadly, the stoichiometry N is a count of units in the complex or per binding partner.
